Measured values published in patent publication US6274553A, “Method for stabilizing peptides and freeze-dried medicinal compositions containing peptides obtained by using the method” (Japan Energy Corporation, priority 1997, dated 2001).

Columns and labels:
Assay type in all cases: physicochemical
[1] = Amount of isomers in lyophilized HV1C3 stored at 60° C., saccharose/mannitol (Experiment Example 5); conditions: pH 5.5, 5 mM tartaric acid
Procedure: In the same manner as in Experiment Example 1, hirudin variant HV1C3, purified saccharose, and mannitol were dissolved in purified water to a concentration of 6 mg/ml (0.86 mM) of hirudin variant HV1C3 and concentrations of purified saccharose and mannitol respectively shown in Table 6. The solution was adjusted to pH 5.5 using 5 mM tartaric acid to obtain a peptide solution. The peptide solutions for which the pH was adjusted and the peptide solution before pH adjustment were filtered through a 0.22 μm membrane filter. The filtrates were filled into 6 ml vials in the amount of 1 ml for each vial and lyophilized.
The lyophilized samples were stored in an incubator at 60° C. and removed from the incubator after 4 and 8 weeks, respectively. […] was added to each vial removed. Solutions further diluted 50-fold were subjected to liquid chromatography to measure a peak area percentage of isomers other than the hirudin variant HV1C3.

[2] = Storage stability of lyophilized HV1C3 at 60° C., tartaric acid concentration (Experiment Example 4)
Procedure: Hirudin variant HV1C3 and purified saccharose were dissolved in purified water to a final concentration of 6 mg/ml (0.866 mM) and 1.6 mg/ml (4.7 mM), respectively. The resulting solution was divided into four equal portions. Three of these portions were adjusted to pH 5.5 using 5 mM of tartaric acid, 10 mM of tartaric acid, and 30 mM of tartaric acid, respectively. Mannitol was added to a solution without pH adjustment to a concentration of 10 mg/ml (55 mM). These solutions were filtered through a 0.22 μm membrane filter. The filtrates were filled into 6 ml vials in the amount of 1 ml for each vial. 50 such vials were prepared for each pH of the solution, 200 vials in total. All these 200 vials were lyophilized.
The lyophilized samples were stored in an incubator at 60° C. and removed from the incubator after 1, 2, 3, 4, 5, and 6 weeks, respectively. 1 ml of purified water was added to each vial removed. The amount (percentage) of the hirudin variant HV1C3 remaining in the lyophilized sample was determined in the same manner as in Experiment Example 1.

[3] = Storage stability of lyophilized HV1C3 at 50° C., liquid chromatography peak area (Experiment Example 1); conditions: glycine, mannitol
Procedure: Hirudin variant HV1C3 having the amino acid sequence shown by Sequence NO. 1 in the Sequence Table, glycine, and mannitol were dissolved in purified water to a final concentration of 6 mg/ml (0.86 mM), 6.7 mg/ml (89 mM), and 33.5 mg/ml (184 mM), respectively. The resulting solution was divided into six equal portions. These portions were adjusted to the pH shown in Table 1 with the addition of 30 mM of tartaric acid, phosphoric acid, or Tris buffer solution. The peptide solutions for which the pH was thus adjusted filtered through a 0.22 μm membrane filter. The filtrates were charged into 6 ml vials in the amount of 1 ml for each vial. 50 such vials were prepared for each pH of the solution, totaling 300 vials. All these 300 vials were lyophilized.
The lyophilized samples were stored in an incubator at 50° C. and removed from the incubator after 1, 2, 4, 6, 8 weeks, respectively. 1 ml of purified water was added to each vial removed. Solutions further diluted 50-fold were subjected to liquid chromatography to measure a peak area percentage of hirudin variant HV1C3 under the conditions shown in Table 2. The amount (percentage) of the hirudin variant HV1C3 remaining in the lyophilized sample, after having been stored in the incubator, compound with the amount of the hirudin variant HV1C3 contained at the beginning of the storage was determined.

[4] = no saccharose, mannitol 10 mg/ml
[5] = purified saccharose 1.6 mg/ml, mannitol 10 mg/ml
[6] = purified saccharose 1.6 mg/ml, no mannitol
[7] = tartaric acid 0 mM, without pH adjustment, mannitol 10 mg/ml, saccharose
[8] = tartaric acid 5 mM, pH 5.5, saccharose
[9] = tartaric acid 10 mM, pH 5.5, saccharose
[10] = tartaric acid 30 mM, pH 5.5, saccharose

B1: hirudin variant HV1C3: Hirudin variant having the amino acid sequence shown by Sequence No. 1 (JP Laid-open No. 173798/1992) (protein)
chain: VVYTDCTESGQNLCLCEGSNVCGQGNKCILGSDGEKNQCVTGEGTPKPQSHNQGDFEPIPEDAYDE
The amount of isomers (%) 4 weeks [1, 4]: 6.93% | The amount of isomers (%) 8 weeks [1, 4]: 7.99% | The amount of isomers (%) 4 weeks ([1]; no saccharose, no mannitol): 5.72% | The amount of isomers (%) 8 weeks ([1]; no saccharose, no mannitol): 6.13% | The amount of isomers (%) 4 weeks [1, 5]: 7.23% | The amount of isomers (%) 8 weeks [1, 5]: 8.58% | The amount of isomers (%) 4 weeks [1, 6]: 4.90% | The amount of isomers (%) 8 weeks [1, 6]: 5.00% | Remaining peptide (%) 1 wk [2, 7]: 97.0% | Remaining peptide (%) 2 wks [2, 7]: 94.0% | Remaining peptide (%) 3 wks [2, 7]: 92.0% | Remaining peptide (%) 4 wks [2, 7]: 91.0% | Remaining peptide (%) 5 wks [2, 7]: 87.8% | Remaining peptide (%) 6 wks [2, 7]: 86.5% | Remaining peptide (%) 1 wk [2, 8]: 98.8% | Remaining peptide (%) 2 wks [2, 8]: 98.6% | Remaining peptide (%) 3 wks [2, 8]: 97.6% | Remaining peptide (%) 4 wks [2, 8]: 97.5% | Remaining peptide (%) 5 wks [2, 8]: 97.0% | Remaining peptide (%) 6 wks [2, 8]: 96.9% | Remaining peptide (%) 1 wk [2, 9]: 98.5% | Remaining peptide (%) 2 wks [2, 9]: 98.1% | Remaining peptide (%) 3 wks [2, 9]: 97.2% | Remaining peptide (%) 4 wks [2, 9]: 96.9% | Remaining peptide (%) 5 wks [2, 9]: 96.4% | Remaining peptide (%) 6 wks [2, 9]: 96.1% | Remaining peptide (%) 1 wk [2, 10]: 97.9% | Remaining peptide (%) 2 wks [2, 10]: 96.8% | Remaining peptide (%) 3 wks [2, 10]: 96.1% | Remaining peptide (%) 4 wks [2, 10]: 94.7% | Remaining peptide (%) 5 wks [2, 10]: 94.1% | Remaining peptide (%) 6 wks [2, 10]: 93.5% | Remaining peptide (%) 1 wk ([3]; pH 4.5, tartaric acid 30 mM): 98.0% | Remaining peptide (%) 2 wks ([3]; pH 4.5, tartaric acid 30 mM): 97.7% | Remaining peptide (%) 4 wks ([3]; pH 4.5, tartaric acid 30 mM): 95.4% | Remaining peptide (%) 6 wks ([3]; pH 4.5, tartaric acid 30 mM): 94.7% | Remaining peptide (%) 8 wks ([3]; pH 4.5, tartaric acid 30 mM): 93.4% | Remaining peptide (%) 1 wk ([3]; pH 5.5, tartaric acid 30 mM): 98.6% | Remaining peptide (%) 2 wks ([3]; pH 5.5, tartaric acid 30 mM): 98.7% | Remaining peptide (%) 4 wks ([3]; pH 5.5, tartaric acid 30 mM): 97.5% | Remaining peptide (%) 6 wks ([3]; pH 5.5, tartaric acid 30 mM): 96.5% | Remaining peptide (%) 8 wks ([3]; pH 5.5, tartaric acid 30 mM): 97.0% | Remaining peptide (%) 1 wk ([3]; pH 6.0, phosphoric acid 30 mM): 98.4% | Remaining peptide (%) 2 wks ([3]; pH 6.0, phosphoric acid 30 mM): 96.4% | Remaining peptide (%) 4 wks ([3]; pH 6.0, phosphoric acid 30 mM): 95.1% | Remaining peptide (%) 6 wks ([3]; pH 6.0, phosphoric acid 30 mM): 94.5% | Remaining peptide (%) 8 wks ([3]; pH 6.0, phosphoric acid 30 mM): 93.6% | Remaining peptide (%) 1 wk ([3]; pH 7.0, Tris buffer 30 mM): 95.7% | Remaining peptide (%) 2 wks ([3]; pH 7.0, Tris buffer 30 mM): 92.0% | Remaining peptide (%) 4 wks ([3]; pH 7.0, Tris buffer 30 mM): 86.8% | Remaining peptide (%) 6 wks ([3]; pH 7.0, Tris buffer 30 mM): 72.0% | Remaining peptide (%) 8 wks ([3]; pH 7.0, Tris buffer 30 mM): 70.3% | Remaining peptide (%) 1 wk ([3]; pH 7.0, phosphoric acid 30 mM): 99.0% | Remaining peptide (%) 2 wks ([3]; pH 7.0, phosphoric acid 30 mM): 97.3% | Remaining peptide (%) 4 wks ([3]; pH 7.0, phosphoric acid 30 mM): 93.3% | Remaining peptide (%) 6 wks ([3]; pH 7.0, phosphoric acid 30 mM): 92.7% | Remaining peptide (%) 8 wks ([3]; pH 7.0, phosphoric acid 30 mM): 90.0% | Remaining peptide (%) 1 wk ([3]; pH 8.0, Tris buffer 30 mM): 81.9% | Remaining peptide (%) 2 wks ([3]; pH 8.0, Tris buffer 30 mM): 58.0%
